Assay results reported in publication PMC5122344, “Nuclear delivery of recombinant OCT4 by chitosan nanoparticles for transgene-free generation of protein-induced pluripotent stem cells”.

B1: octamer oligonucleotide (Ig heavy chain enhancer) (dsDNA)
DNA 1: GCCGAATTTGCATATTTGCATGGCTG
DNA 2: CAGCCATGCAAATATGCAAATTCGGC
B2: unlabeled octamer oligonucleotide (dsDNA)
DNA 1: GCCGAATTTGCATATTTGCATGGCTG
DNA 2: CAGCCATGCAAATATGCAAATTCGGC

Columns and labels:
[1] = molecular target: T1, GST-OCT4 (human, UniProt Q01860 1-360); test: EMSA; soluble OCT4, 30 ng per lane; LI-COR Odyssey EMSA kit 1x binding buffer (composition and pH not given), 2.5 mM DTT, 0.25% Tween-20, 1 ug poly(dI-dC) in 20 ul, 20 min at RT; 4% native PAGE in 0.5x TBE; conditions: protein: recombinant; tags: GST (N-terminal, pAcG2T); label: IRDye 700; (only one strand printed)
T1 sequence (Q01860 whole entry): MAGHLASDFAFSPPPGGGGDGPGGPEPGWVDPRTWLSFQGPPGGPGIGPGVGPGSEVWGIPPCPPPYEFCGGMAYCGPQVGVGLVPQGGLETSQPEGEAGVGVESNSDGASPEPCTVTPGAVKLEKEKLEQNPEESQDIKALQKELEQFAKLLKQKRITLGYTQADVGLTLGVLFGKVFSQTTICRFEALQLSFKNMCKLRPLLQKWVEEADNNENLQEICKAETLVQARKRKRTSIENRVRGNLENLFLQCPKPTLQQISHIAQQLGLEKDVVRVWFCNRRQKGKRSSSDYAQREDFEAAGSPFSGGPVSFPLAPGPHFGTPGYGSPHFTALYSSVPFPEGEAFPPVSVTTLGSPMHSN

[2] = molecular target: T1, GST-OCT4; test: competition; 50-fold excess unlabeled oligonucleotide abolishes complex; LI-COR Odyssey EMSA kit 1x binding buffer (composition and pH not given), 2.5 mM DTT, 0.25% Tween-20, 1 ug poly(dI-dC) in 20 ul, 20 min at RT; 4% native PAGE in 0.5x TBE; conditions: protein: recombinant; tags: GST (N-terminal, pAcG2T); label: none; (only one strand printed)

Row | Binder | binding result [1] | binding result [2]
1 | B1 | binds | 
2 | B2 |  | binds
